Measured values reported in paper PMC10516921 (Nature Communications, 2023).

Legend:
[1] = molecular target: human ferroptosis suppressor protein 1, full length, recombinant from E. coli (human) (UniProt Q9BRQ8); assay: dynamic light scattering; DynaPro NanoStar, 8 °C or 20 °C, 5-10 μM protein in buffer B; also with NADH
[2] = molecular target: the molecule itself; assay: SEC + other: dynamic light scattering; in solution; the sentence points to Supplementary Fig. 4 as a whole (gel filtration in panels a, b; DLS in panel c)
[3] = molecular target: the molecule itself; assay: SEC; Superdex 200 Increase 10/300 GL, buffer B (20 mM Tris-HCl pH 8.0, 150 mM NaCl), 0.5 ml/min, 20 °C, molecular weight markers

| Molecule | stoichiometry N [2] | stoichiometry N [3] | other results |
| --- | --- | --- | --- |
| human ferroptosis suppressor protein 1, full length, recombinant from E. coli (from UniProt Q9BRQ8 1-373) (enzyme) |  |  | stoichiometry N [1]: 2 |
| Gallus gallus FSP1 residues 1-318 (cFSP1^ΔCTD) (domain or fragment, Gallus gallus (chicken), UniProt E1BR24 1-318, looked up, FSP1 (AIFM2) of chicken (Gallus gallus), residues 1-318; lacks the C-terminal domain (319-373); source: E. coli BL21 (DE3), purified (Ni-Chelating Sepharose, Superdex 200 Increase)) MGSRLSVDDSVRVVIVGGGFGGIAAASQLKSWAVPFVLVDMRDAFHHNVAALRASVESGFARKTFISYSVTFGDSFRQGKVVGIDPERQQVLLSDGEELHYSHLILATGSDGPFPGKFNKVIDMESAIQTYEDMVKEIEKSERILVVGGGAAGVEMAAEIKTEYPAKEVTLIHSKIALADVELLQSVRQEVKEILLRKGVRLLLSEKVSNVENLTTNQFQKDMVVRTEKGTEVVVDMVVLCTGIKINSSAYATAFGDKLASNGALNVNKHLQLEGYDNIYAIGDCANLKEPKMAYHAELHANIVVSNIINSLTHKPLK | 2 |  |  |
| human FSP1 residues 1-316 (hFSP1^ΔCTD), recombinant from E. coli (domain or fragment, UniProt Q9BRQ8 1-316, looked up, FSP1 (AIFM2), human, residues 1-316; lacks the C-terminal domain; source: E. coli BL21 (DE3), purified (Ni-Chelating Sepharose, Ulp1 cleavage, Superdex 200 Increase); not shown: His6, N-terminal, cleaved; SUMO, N-terminal, cleaved) MGSQVSVESGALHVVIVGGGFGGIAAASQLQALNVPFMLVDMKDSFHHNVAALRASVETGFAKKTFISYSVTFKDNFRQGLVVGIDLKNQMVLLQGGEALPFSHLILATGSTGPFPGKFNEVSSQQAAIQAYEDMVRQVQRSRFIVVVGGGSAGVEMAAEIKTEYPEKEVTLIHSQVALADKELLPSVRQEVKEILLRKGVQLLLSERVSNLEELPLNEYREYIKVQTDKGTEVATNLVILCTGIKINSSAYRKAFESRLASSGALRVNEHLQVEGHSNVYAIGDCADVRTPKMAYLAGLHANIAVANIVNSVKQR | 2 |  |  |
| Gallus gallus ferroptosis suppressor protein 1, full length (enzyme, Gallus gallus (chicken), UniProt E1BR24 1-373, looked up, Ferroptosis suppressor protein 1 (FSP1, AIFM2) of chicken (Gallus gallus), full length, residues 1-373; gene optimized and synthesized, in pET-22b; also called cFSP1; chicken FSP1; source: E. coli BL21 (DE3), purified (Ni-Chelating Sepharose, Superdex 200 Increase)) MGSRLSVDDSVRVVIVGGGFGGIAAASQLKSWAVPFVLVDMRDAFHHNVAALRASVESGFARKTFISYSVTFGDSFRQGKVVGIDPERQQVLLSDGEELHYSHLILATGSDGPFPGKFNKVIDMESAIQTYEDMVKEIEKSERILVVGGGAAGVEMAAEIKTEYPAKEVTLIHSKIALADVELLQSVRQEVKEILLRKGVRLLLSEKVSNVENLTTNQFQKDMVVRTEKGTEVVVDMVVLCTGIKINSSAYATAFGDKLASNGALNVNKHLQLEGYDNIYAIGDCANLKEPKMAYHAELHANIVVSNIINSLTHKPLKTYQPGSLTFLLSMGKNDGVGQVKGYYVGHLLVTIAKSRDLFVSKSWKTMGQPMPS |  | 2 |  |
| Gallus gallus FSP1 residues 12-373 (cFSP1^ΔN), not methylated (domain or fragment, Gallus gallus (chicken), UniProt E1BR24 12-373, looked up, FSP1 (AIFM2) of chicken (Gallus gallus), residues 12-373; lacks the N-terminal myristoylation motif (residues 1-11); Same limits as the crystallized, methylated protein; also called native cFSP1^ΔN; source: E. coli BL21 (DE3), purified (Ni-Chelating Sepharose, Superdex 200 Increase)) RVVIVGGGFGGIAAASQLKSWAVPFVLVDMRDAFHHNVAALRASVESGFARKTFISYSVTFGDSFRQGKVVGIDPERQQVLLSDGEELHYSHLILATGSDGPFPGKFNKVIDMESAIQTYEDMVKEIEKSERILVVGGGAAGVEMAAEIKTEYPAKEVTLIHSKIALADVELLQSVRQEVKEILLRKGVRLLLSEKVSNVENLTTNQFQKDMVVRTEKGTEVVVDMVVLCTGIKINSSAYATAFGDKLASNGALNVNKHLQLEGYDNIYAIGDCANLKEPKMAYHAELHANIVVSNIINSLTHKPLKTYQPGSLTFLLSMGKNDGVGQVKGYYVGHLLVTIAKSRDLFVSKSWKTMGQPMPS |  | 2 |  |
| Gallus gallus FSP1 residues 12-373 (cFSP1^ΔN), reductively methylated (domain or fragment, Gallus gallus (chicken), UniProt E1BR24 12-373, looked up, surface lysine residues modified by reductive methylation (formaldehyde and dimethylamine-borane complex), FSP1 (AIFM2) of chicken (Gallus gallus), residues 12-373; lacks the N-terminal myristoylation motif (residues 1-11); Crystallized substrate-free and with CoQ1; A selenomethionine derivative was used for phasing; also called methylated cFSP1^ΔN; source: E. coli BL21 (DE3), purified (Ni-chelating resin, HiTrap Heparin, reductive methylation, Superdex 200 Increase)) RVVIVGGGFGGIAAASQLKSWAVPFVLVDMRDAFHHNVAALRASVESGFARKTFISYSVTFGDSFRQGKVVGIDPERQQVLLSDGEELHYSHLILATGSDGPFPGKFNKVIDMESAIQTYEDMVKEIEKSERILVVGGGAAGVEMAAEIKTEYPAKEVTLIHSKIALADVELLQSVRQEVKEILLRKGVRLLLSEKVSNVENLTTNQFQKDMVVRTEKGTEVVVDMVVLCTGIKINSSAYATAFGDKLASNGALNVNKHLQLEGYDNIYAIGDCANLKEPKMAYHAELHANIVVSNIINSLTHKPLKTYQPGSLTFLLSMGKNDGVGQVKGYYVGHLLVTIAKSRDLFVSKSWKTMGQPMPS |  | 2 |  |
